Experimental findings from patent US7067646 (Dana-Farber, dated 2006) are described below.

The target in experiment [1] is T1, MTAF600 (microtubule associated factor 600) (human, UniProt Q5T4S7 1-5183).
T1 construct: Native endogenous protein of HeLa nuclear extracts (5183 residues); also called MT-associated factor (MTAF) 600; 600 kDa subunit
The experiment in a line: anti-FLAG immunoprecipitation of C-terminally tagged RB from HeLa cells.

The target of experiment [2] is T2, GST-RB (379-928) (UniProt P06400 379-928).
T2 construct: Expressed in E. coli; also called large pocket domain of RB as GST fusion; not shown: glutathione S-transferase (GST) fusion partner of vector pGEX6P-1
T2 sequence (looked up): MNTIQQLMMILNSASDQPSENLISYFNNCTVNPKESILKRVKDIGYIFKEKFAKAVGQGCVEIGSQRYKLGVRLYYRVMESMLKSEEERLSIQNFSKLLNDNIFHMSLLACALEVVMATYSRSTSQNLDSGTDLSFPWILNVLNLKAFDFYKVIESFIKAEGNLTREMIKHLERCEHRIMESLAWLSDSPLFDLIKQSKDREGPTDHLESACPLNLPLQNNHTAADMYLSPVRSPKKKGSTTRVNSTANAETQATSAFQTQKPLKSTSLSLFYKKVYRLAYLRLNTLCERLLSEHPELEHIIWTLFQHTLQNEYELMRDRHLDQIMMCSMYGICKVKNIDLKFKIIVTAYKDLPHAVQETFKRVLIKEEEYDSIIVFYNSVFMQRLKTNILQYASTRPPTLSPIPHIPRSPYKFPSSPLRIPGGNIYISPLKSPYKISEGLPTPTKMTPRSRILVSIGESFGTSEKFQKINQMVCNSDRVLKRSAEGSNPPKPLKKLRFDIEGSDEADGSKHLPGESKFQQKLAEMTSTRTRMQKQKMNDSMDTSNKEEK
Put plainly: GST-RB (379-928) pull-down of His-tagged fragment from E. coli, Coomassie stain and anti-His immunoblot. (In western blotting, separated proteins are transferred to a membrane and probed.)

T1 sequence (Q5T4S7 other isoform, or with tags, fused parts or gaps limits assumed): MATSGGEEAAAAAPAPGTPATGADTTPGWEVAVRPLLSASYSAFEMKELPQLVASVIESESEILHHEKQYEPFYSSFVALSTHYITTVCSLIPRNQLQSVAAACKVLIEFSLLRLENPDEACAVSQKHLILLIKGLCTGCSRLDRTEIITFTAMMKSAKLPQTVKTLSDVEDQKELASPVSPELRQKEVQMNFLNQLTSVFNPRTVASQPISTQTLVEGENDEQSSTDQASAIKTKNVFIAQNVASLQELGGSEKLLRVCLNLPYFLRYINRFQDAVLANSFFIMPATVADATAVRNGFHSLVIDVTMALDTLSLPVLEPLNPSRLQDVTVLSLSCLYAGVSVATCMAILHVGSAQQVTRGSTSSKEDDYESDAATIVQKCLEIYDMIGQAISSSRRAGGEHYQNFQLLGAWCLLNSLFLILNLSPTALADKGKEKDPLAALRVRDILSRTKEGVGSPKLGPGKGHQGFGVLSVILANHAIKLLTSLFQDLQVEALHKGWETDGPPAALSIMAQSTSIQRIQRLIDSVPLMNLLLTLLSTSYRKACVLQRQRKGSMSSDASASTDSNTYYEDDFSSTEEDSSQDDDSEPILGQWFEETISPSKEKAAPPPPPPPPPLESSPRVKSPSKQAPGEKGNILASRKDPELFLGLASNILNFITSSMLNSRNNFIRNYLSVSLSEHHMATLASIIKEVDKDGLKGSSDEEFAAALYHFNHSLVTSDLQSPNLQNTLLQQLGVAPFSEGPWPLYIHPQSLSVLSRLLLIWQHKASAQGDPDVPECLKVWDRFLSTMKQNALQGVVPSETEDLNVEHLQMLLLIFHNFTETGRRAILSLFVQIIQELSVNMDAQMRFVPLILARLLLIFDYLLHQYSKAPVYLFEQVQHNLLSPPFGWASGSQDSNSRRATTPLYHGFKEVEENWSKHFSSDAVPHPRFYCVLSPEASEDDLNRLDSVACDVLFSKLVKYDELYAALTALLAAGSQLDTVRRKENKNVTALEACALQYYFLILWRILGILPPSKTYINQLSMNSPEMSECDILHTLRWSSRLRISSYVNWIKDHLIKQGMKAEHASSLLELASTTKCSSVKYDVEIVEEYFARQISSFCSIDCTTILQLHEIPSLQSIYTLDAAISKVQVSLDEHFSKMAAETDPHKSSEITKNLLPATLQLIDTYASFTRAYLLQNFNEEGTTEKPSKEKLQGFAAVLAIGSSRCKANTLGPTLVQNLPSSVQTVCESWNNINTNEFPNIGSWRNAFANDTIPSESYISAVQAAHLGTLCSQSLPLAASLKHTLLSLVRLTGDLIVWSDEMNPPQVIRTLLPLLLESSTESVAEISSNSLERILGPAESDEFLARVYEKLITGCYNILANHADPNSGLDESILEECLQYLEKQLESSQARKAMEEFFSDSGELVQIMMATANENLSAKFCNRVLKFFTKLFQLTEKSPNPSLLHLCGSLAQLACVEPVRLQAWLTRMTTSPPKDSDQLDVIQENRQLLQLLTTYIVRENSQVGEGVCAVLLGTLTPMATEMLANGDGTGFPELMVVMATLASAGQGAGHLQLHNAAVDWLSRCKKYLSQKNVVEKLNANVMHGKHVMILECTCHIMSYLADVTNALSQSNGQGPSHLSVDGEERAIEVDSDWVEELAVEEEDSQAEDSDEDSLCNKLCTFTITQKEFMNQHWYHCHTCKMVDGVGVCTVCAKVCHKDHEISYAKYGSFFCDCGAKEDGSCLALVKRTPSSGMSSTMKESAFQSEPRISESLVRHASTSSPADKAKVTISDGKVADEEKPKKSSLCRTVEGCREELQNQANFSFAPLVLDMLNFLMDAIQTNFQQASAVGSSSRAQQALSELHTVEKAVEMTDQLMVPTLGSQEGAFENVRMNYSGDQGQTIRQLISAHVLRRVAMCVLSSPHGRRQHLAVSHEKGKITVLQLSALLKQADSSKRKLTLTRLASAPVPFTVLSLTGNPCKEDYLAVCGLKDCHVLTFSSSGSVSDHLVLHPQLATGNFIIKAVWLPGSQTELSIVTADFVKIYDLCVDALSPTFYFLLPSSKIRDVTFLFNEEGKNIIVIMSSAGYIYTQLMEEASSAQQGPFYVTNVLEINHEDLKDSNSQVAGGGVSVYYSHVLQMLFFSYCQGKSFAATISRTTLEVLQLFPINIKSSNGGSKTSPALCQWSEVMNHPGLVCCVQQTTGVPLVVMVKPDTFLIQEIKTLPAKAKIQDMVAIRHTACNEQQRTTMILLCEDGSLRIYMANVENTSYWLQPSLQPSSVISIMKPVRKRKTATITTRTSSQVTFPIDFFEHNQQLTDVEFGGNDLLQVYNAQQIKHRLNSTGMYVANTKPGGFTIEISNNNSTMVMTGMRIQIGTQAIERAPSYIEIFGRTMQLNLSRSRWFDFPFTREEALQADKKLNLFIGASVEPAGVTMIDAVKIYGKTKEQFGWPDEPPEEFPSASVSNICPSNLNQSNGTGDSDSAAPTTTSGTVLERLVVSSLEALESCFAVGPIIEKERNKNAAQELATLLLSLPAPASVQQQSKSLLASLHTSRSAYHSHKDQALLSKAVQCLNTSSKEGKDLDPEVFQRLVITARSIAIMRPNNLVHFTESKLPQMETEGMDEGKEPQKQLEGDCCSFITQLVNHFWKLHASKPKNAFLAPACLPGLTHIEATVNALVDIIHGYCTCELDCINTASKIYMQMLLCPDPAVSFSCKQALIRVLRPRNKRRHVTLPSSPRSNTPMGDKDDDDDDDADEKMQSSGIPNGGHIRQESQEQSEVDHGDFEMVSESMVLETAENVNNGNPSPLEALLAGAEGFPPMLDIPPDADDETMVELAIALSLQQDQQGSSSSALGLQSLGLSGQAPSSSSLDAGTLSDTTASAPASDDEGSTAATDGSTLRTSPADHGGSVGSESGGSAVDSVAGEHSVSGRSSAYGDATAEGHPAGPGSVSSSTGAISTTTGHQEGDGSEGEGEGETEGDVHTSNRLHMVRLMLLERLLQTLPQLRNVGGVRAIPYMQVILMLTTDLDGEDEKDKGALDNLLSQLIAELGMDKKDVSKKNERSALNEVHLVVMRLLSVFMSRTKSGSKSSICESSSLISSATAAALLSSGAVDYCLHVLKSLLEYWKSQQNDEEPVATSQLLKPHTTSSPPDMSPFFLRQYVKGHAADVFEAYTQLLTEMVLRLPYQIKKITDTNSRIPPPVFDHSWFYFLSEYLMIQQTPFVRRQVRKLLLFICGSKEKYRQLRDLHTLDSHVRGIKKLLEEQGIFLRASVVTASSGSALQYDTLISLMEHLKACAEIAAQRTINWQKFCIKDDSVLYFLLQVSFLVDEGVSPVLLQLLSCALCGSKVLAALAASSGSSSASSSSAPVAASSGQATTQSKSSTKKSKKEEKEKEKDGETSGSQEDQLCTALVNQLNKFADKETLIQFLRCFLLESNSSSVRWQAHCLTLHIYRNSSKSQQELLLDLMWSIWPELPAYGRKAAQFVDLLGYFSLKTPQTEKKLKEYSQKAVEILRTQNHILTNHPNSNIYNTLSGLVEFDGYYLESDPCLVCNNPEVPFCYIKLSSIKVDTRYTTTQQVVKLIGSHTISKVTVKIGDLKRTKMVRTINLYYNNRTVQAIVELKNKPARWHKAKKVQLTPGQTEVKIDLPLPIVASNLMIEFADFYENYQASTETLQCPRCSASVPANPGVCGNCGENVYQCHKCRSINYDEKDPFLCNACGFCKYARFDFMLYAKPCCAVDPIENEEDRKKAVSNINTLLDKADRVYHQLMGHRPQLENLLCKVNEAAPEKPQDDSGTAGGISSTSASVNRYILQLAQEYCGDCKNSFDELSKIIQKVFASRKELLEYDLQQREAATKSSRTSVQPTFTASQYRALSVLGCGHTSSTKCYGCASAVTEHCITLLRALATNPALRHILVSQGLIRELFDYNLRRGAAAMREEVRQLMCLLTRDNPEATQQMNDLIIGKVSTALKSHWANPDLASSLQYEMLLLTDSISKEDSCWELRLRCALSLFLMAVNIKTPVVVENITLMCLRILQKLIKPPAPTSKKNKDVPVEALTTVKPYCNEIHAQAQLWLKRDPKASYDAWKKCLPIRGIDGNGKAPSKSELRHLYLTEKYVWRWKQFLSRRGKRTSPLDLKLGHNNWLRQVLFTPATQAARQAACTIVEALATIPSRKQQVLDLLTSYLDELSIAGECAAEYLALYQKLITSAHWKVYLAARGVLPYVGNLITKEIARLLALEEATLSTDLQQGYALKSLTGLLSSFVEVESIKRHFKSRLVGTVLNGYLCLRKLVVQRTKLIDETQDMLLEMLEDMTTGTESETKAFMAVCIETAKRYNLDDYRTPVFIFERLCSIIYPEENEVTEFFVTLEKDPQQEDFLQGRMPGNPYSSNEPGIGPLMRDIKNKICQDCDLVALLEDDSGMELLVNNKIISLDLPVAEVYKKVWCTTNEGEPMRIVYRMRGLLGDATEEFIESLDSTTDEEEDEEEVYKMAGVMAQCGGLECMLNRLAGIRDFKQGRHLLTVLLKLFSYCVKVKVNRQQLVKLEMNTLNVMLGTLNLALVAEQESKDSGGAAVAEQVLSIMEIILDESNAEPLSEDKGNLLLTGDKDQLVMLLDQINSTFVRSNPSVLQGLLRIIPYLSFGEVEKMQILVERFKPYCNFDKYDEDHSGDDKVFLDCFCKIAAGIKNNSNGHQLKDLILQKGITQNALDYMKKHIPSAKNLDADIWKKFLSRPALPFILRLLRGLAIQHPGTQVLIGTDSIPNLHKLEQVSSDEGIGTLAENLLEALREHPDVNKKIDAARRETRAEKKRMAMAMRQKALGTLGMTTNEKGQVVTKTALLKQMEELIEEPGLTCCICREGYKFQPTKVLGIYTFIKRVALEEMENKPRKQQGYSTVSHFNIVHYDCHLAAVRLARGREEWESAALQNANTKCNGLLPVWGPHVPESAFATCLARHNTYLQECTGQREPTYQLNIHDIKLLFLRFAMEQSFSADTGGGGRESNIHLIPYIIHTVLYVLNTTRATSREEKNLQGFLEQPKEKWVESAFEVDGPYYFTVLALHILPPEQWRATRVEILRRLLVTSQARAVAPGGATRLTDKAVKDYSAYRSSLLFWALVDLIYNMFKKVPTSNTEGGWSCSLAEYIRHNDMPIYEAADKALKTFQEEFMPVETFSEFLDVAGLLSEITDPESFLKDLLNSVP

B1: RB with the FLAG tag at the C-terminus (other, UniProt P06400 2-928, looked up, not shown: small tags and cut ends)
chain: PPKTPRKTAATAAAAAAEPPAPPPPPPPEEDPEQDSGPEDLPLVRLEFEETEEPDFTALCQKLKIPDHVRERAWLTWEKVSSVDGVLGGYIQKKKELWGICIFIAAVDLDEMSFTFTELQKNIEISVHKFFNLLKEIDTSTKVDNAMSRLLKKYDVLFALFSKLERTCELIYLTQPSSSISTEINSALVLKVSWITFLLAKGEVLQMEDDLVISFQLMLCVLDYFIKLSPPMLLKEPYKTAVIPINGSPRTPRRGQNRSARIAKQLENDTRIIEVLCKEHECNIDEVKNVYFKNFIPFMNSLGLVTSNGLPEVENLSKRYEEIYLKNKDLDARLFLDHDKTLQTDSIDSFETQRTPRKSNLDEEVNVIPPHTPVRTVMNTIQQLMMILNSASDQPSENLISYFNNCTVNPKESILKRVKDIGYIFKEKFAKAVGQGCVEIGSQRYKLGVRLYYRVMESMLKSEEERLSIQNFSKLLNDNIFHMSLLACALEVVMATYSRSTSQNLDSGTDLSFPWILNVLNLKAFDFYKVIESFIKAEGNLTREMIKHLERCEHRIMESLAWLSDSPLFDLIKQSKDREGPTDHLESACPLNLPLQNNHTAADMYLSPVRSPKKKGSTTRVNSTANAETQATSAFQTQKPLKSTSLSLFYKKVYRLAYLRLNTLCERLLSEHPELEHIIWTLFQHTLQNEYELMRDRHLDQIMMCSMYGICKVKNIDLKFKIIVTAYKDLPHAVQETFKRVLIKEEEYDSIIVFYNSVFMQRLKTNILQYASTRPPTLSPIPHIPRSPYKFPSSPLRIPGGNIYISPLKSPYKISEGLPTPTKMTPRSRILVSIGESFGTSEKFQKINQMVCNSDRVLKRSAEGSNPPKPLKKLRFDIEGSDEADGSKHLPGESKFQQKLAEMTSTRTRMQKQKMNDSMDTSNKEEK
notes: also called C-terminally tagged RB
Consider B1, for which the binding result in experiment [1] is on record as “binds”.

B2: His-tagged MTAF600 (4529-4851) (other)
chain: EMNTLNVMLGTLNLALVAEQESKDSGGAAVAEQVLSIMEIILDESNAEPLSEDKGNLLLTGDKDQLVMLLDQINSTFVRSNPSVLQGLLRIIPYLSFGEVEKMQILVERFKPYCNFDKYDEDHSGDDKVFLDCFCKIAAGIKNNSNGHQLKDLILQKGITQNALDYMKKHIPSAKNLDADIWKKFLSRPALPFILRLLRGLAIQHPGTQVLIGTDSIPNLHKLEQVSSDEGIGTLAENLLEALREHPDVNKKIDAARRETRAEKKRMAMAMRQKALGTLGMTTNEKGQVVTKTALLKQMEELIEEPGLTCCICREGYKFQPTK
notes: Expressed in E. coli; not shown: His tag of vector pET28c
For the molecule B2, in experiment [2], the binding result is on record as “no binding”.
